The source of these data is the RNAGym collection of RNA variant scans (doi:10.7554/elife.80360).

B1: HDV Ribozyme (parent)
chain: GGCCGGCAUGGUCCCAGCCUCCUCGCUGGCGCCGGCUGGGCAACAUUCCGAGGGGACCGUCCCCUCGGUAAUGGCGAAUGGGACCCA

The data set covers variants of B1. In words: self-cleavage, relative activity (ratio to wild type); higher = more cleavage; co-transcriptional.
For GGCCGGCAUGGUCCCAGCCUCCUCGCUGGCGCCGGCUGGGCAACAUUCCGAGGGGACCGUCCCCUUGGUAAUGGCGAAUGGCACCCA, the self-cleavage stood at 0.268.
In the case of GGCCAGCAUGGUCCCAGCCUCCUCGCUGGCGCCGGCUGGGCACCAUUCCGAGGGGACCGUCCCCUCGGUAAUGGCGAAUGGGACCCA it was 0.0594.
The figure for GGCCGGCAUGGUCCCAGGCUCCUCGCUGGCGCCGGCUGGGCAACAUUGCGAGGGGACCGUCCCCUCGGUAAUGGCGAAUGGGACCCA is 0.175.
In the case of GGCCGGCAUGGUCCCAGCCUCCUCGCCGGCGCCGGCUGGGCAACAUUCCGAGGGGACCGUCCCCUCGGUAAUGGCGAAUCGGACCCA it was 0.101.
As for GGCCGGCAUGGUCCCAGCCUCAUCGCUGGCGCCGGCAGGGCAACAUUCCGAGGGGACCGUCCCCUCGGUAAUGGCGAAUGGGACCCA, the self-cleavage came to 0.0554.
As to GGCCGGCAUGGUCCCAGCCUCCUCGAUGGCGCCGGCUGGGCAACAUUCCGUGGGGACCGUCCCCUCGGUAAUGGCGAAUGGGACCCA, the self-cleavage was 1.08.
In the case of GGCCGGCAUGGUCCCAGCCUCAUCGCUGGCGCCGGCUGGGCAACAUUCCGAGGGGACAGUCCCCUCGGUAAUGGCGAAUGGGACCCA it was 0.203.
In the case of CGCCGGCAUGGUCGCAGCCUCCUCGCUGGCGCCGGCUGGGCAACAUUCCGAGGGGACCGUCCCCUCGGUAAUGGCGAAUGGGACCCA it was 0.0615; in that of GGCCGGCAUGGUCCCAGCCUCCUCGCUGGCGCCGGCUGGGCAACAUUCCGAGGGGACCGUCCCCCCGGUCAUGGCGAAUGGGACCCA, 1.17; in that of GGCCGGCAUGGUCCCAGCCUCCUCGCUGGCGCCGGCUGGGCAACAUUCCGAGGGGACCGUCCCCUCGGUAAUGGCGAAUGGGACCUC, 0.926.
The figure for GGCCGGCAUGGUCCCAGCCUCCUCGCUGGCGCCGGCUGGGCAACAUUCCGACGGGACCGUCCCCUCGGUAAUGGCGAAUGGGACGCA is 1.03; for GGCCGGCAUUGUCCCAGCCUCCUCGCUGGCGCCGGCUGGGCAACAUUCCGAGGGGACCGUCUCCUCGGUAAUGGCGAAUGGGACCCA it is 0.722; for GGCCGGCAUGGUCCCAGCCUCCUCACUGGCGCCGGCUGGGCAACAUUCCGAGGGGACCGUCACCUCGGUAAUGGCGAAUGGGACCCA it is 0.168.
Take GGCCGGCAUGGUCCCAGCCUCCUCGCUGGCGCCGGCUGGGCAACAUUCCGAGGGGACUGUCCCCUCGGUAAUGGCGAAUGGGACCUA: the self-cleavage was 0.969.
Take GGCCGUCAUGGUCCCAGCCUCCUAGCUGGCGCCGGCUGGGCAACAUUCCGAGGGGACCGUCCCCUCGGUAAUGGCGAAUGGGACCCA: the self-cleavage amounted to 0.0378.
In the case of GGCCGGCCGGGUCCCAGCCUCCUCGCUGGCGCCGGCUGGGCAACAUUCCGAGGGGACCGUCCCCUCGGUAAUGGCGAAUGGGACCCA it was 0.692; in that of GGCCGGCAUGGUCCCAGCCUCCUCGCUGGCGCCGGCUGGGCAACAUUCCGAGGGGACCGUCCCCUCCGUAAUGGCGAAUGCGACCCA, 0.286.
The figure for GGCCGGCAUGGUCCCAGCCUCCUCGCUGACGCCGGCUGGGCAACAUUCCGAGGGGACCGUCCCCUCGCUAAUGGCGAAUGGGACCCA is 0.111.
The figure for GGCCGGCAUGGUCCCAGCCGCCUCGCUGGCGCCGGCAGGGCAACAUUCCGAGGGGACCGUCCCCUCGGUAAUGGCGAAUGGGACCCA is 0; for UGCCGGCAUGGUCCCAGCCUCCUCGCUGGCGCCGGCUGGGCAACAUUCCGAGGGGACCGUCCCCUCGGUAAUGGUGAAUGGGACCCA it is 0.321; for GGCCGGCAUGAUCCCAGCCUCCUCGCUGGCGCCGGCUGGGCAACAUUCCGAGGGGACCGUCCCCUCGGUAAUGGCGAAUAGGACCCA it is 0.197.
GGUGGGCAUGGUCCCAGCCUCCUCGCUGGCGCCGGCUGGGCAACAUUCCGAGGGGACCGUCCCCUCGGUAAUGGCGAAUGGGACCCA: the self-cleavage was found to be 0.
In the case of GGCCGGCAUGGUCCCAGCCACCUCGCUGGCGCCGGCUGGGCAACAUUCCGAGGGGACCGUCCCCUCGGUAAAGGCGAAUGGGACCCA it was 0.107.
The figure for GGCCGGCAUGGUCCCAGCCUCCUCGCUGGCGCCGGCUGGGCAACAUUCCGAGGGGACCGUCCCCUUGGUAAUGGCGAAUGAGACCCA is 0.509; for GGUCGGCAUGGUCCCAGCCUCCUCGCUGGCGCCGGUUGGGCAACAUUCCGAGGGGACCGUCCCCUCGGUAAUGGCGAAUGGGACCCA it is 0.356.
In the case of GGCCGGCAUGGUCCCAGCCUCCUCCCUGGCGCCGGCUGGGCAACAUUCCGAGGGGACCCUCCCCUCGGUAAUGGCGAAUGGGACCCA it was 0.131; in that of GGCCGGCAUGGUCCCAGCCUCCUCGCUGGCGCCGGCUGGGCAACUUUCCGAAGGGACCGUCCCCUCGGUAAUGGCGAAUGGGACCCA, 0.798; in that of GGCCGGCAUGUUCACAGCCUCCUCGCUGGCGCCGGCUGGGCAACAUUCCGAGGGGACCGUCCCCUCGGUAAUGGCGAAUGGGACCCA, 0.0707.
For CGCCGGCAUGGUCCCAGCCUCAUCGCUGGCGCCGGCUGGGCAACAUUCCGAGGGGACCGUCCCCUCGGUAAUGGCGAAUGGGACCCA, the self-cleavage came out at 0.203.
The figure for GGCCGGCAUGGUCCCAGCCUCCUCGCUGGCGCCGGGUGGGCAACAUUCCGAGGGGACCGACCCCUCGGUAAUGGCGAAUGGGACCCA is 0.0405; for GGCAGGCAUGGUCCCAGCCUCCUAGCUGGCGCCGGCUGGGCAACAUUCCGAGGGGACCGUCCCCUCGGUAAUGGCGAAUGGGACCCA it is 0.0475.
The figure for GGCCGGCAUGGUCCCAGCCUCCCCGCUGGCGCCGGCUGGGCAACAUUCCGAGGGGAGCGUCCCCUCGGUAAUGGCGAAUGGGACCCA is 0.6.
